Results on four substances are retold here after patent US6875851.

Data set [1] has as its target DPP IV from P. gingivalis (Porphyromonas gingivalis). Briefly: cell-based or functional assay.

Ala-Gly-Pro (peptide) gave a Residual activity of DPP IV, % (inhibitor at 10 mM) in data set [1] of 1%.

For the substance Ala-Pro (peptide), the Residual activity of DPP IV, % (inhibitor at 10 mM) in data set [1] turned out to be 30%.

In the case of DPP IV from P. gingivalis, the Cleavage site result in the data set on Peptide 23 is “H-Ser-Pro-↑-Tyr-Ser-Ser-Asp-Thr-Thr”. As for Val-Pro (peptide), the Residual activity of DPP IV, % (inhibitor at 10 mM) in data set [1] amounted to 0%.
